Target: T1, Bmi1 (mouse (endogenous in Ba/F3 cells and …, UniProt P25916 1-324))
T1 construct: Bmi1, mouse, endogenous protein of Ba/F3 cells and of primary murine B-cell progenitors; also called PCGF4; source: endogenous, Ba/F3 cells (cytoplasmic and nuclear fractions; fixed cells) and murine B-cell progenitors (fixed cells)
T1 sequence (looked up): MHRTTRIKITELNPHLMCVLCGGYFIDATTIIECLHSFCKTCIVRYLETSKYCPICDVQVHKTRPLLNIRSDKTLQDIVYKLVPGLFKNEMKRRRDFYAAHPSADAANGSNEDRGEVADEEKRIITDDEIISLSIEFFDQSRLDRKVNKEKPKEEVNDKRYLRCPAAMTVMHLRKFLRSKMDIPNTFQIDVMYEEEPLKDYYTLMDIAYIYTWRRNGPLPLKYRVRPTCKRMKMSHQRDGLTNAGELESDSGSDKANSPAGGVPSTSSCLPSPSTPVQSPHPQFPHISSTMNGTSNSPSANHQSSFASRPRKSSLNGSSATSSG
Assay: proximity ligation; Duolink PLA in fixed, permeabilised primary murine B-cell progenitors on fibronectin-coated slides (empty vector or p190-BCR-ABL transduced; WT, Rac2-/-, or Vav3-/- transduced with empty vector, Vav3 FL or Vav3 N369A); confocal microscopy
Settings: partners not purified

B1: Vav3 NA (N369A mutant which loses the GEF activity) (natural protein, UniProt Q9R0C8 1-847, looked up)
chain: MEPWKQCAQWLIHSKVLPPNHRVTWDSAQVFDLAQTLRDGVLLCQLLNNLRPHSINLKEINLRPQMSQFLCLKNIRTFLAACCDTFGMRKSELFEAFDLFDVRDFGKVIETLSRLSRTPIALATGIRPFPTEESINDEDIYKGLPDLIDETRVEDEEDLYDCVYGEDEGGEVYEDLMKAEEAQQPKSQENDIRSCCLAEIRQTEEKYTETLESIEKYFMAPLKRFLTAAEFDSVFINIPDLVKVHRSLMQEIHDSIVNKDDQNLYQVFINYKERLVIYGQYCSGVESAISNLDYISKTKEDVKLKLEECSKRANNGKFTLRDLLVVPMQRVLKYHLLLQELVKHTHDPMEKANLKLALDAMKDLAQYVAEVKRDNETLREIKQFQLSIENLNQPVLLFGRPQGDGEIRITTLDKHTKQERHIFLFDLAVIVCKRKGDNYEMKEIIDLQQYKIANNPTTDKENKKWSYGFYLIHTQGQNGLEFYCKTKDLKKKWLEQFEMALSNIRPDYADSNFHDFKMHTFTRVTSCRVCQMLLRGTFYQGYLCFKCGAKAHKECLGRVDNCGRVNSVEQGPFKPPEKRTNGLRRASRQVDPGLPKMQVIRNYTGTPAPGLHEGPPLHIQAGDTVELLRGDAHSVFWQGRNLASGEVGFFPSDAVKPSPCVPKPVDYSCQPWYAGPMERLQAETELINRVNSTYLVRHRTKESGEYAISIKYNNEAKHIKILTRDGFFHIAENRKFKSLMELVEYYKHHSLKEGFRTLDTTLQFPYKEPEQPAGQRGNRTGNSLLSPKVLGIAIARYDFCARDMRELSLLKGDMVKIYTKMSANGWWRGEVNGRVGWFPSTYVEEDE
notes: Vav3 with N369A; also called Vav3(N369A); Vav3N369A; source: lentiviral vector pCDH-EF1-MCS-IRES-GFP, transduced Vav3-/- leukemic murine B-cell progenitors (fixed cells)
Which “fold reduction of the PLA signal against full-length Vav3” value does the source give for B1 here?
Its value is ~2 fold.

— article PMC9160250, “Nuclear Vav3 is required for polycomb repression complex-1 activity in B-cell lymphoblastic leukemogenesis” (Nature Communications, 2022)
